What was measured:
[1] = biological target: SARS-CoV-2 Spike on HIV-based pseudotyped virus (Spike plasmid BEI NR52310) (SARS-CoV-2) (UniProt P0DTC2); experiment: cell-based or functional assay
[2] = biological target: mouse FcRn (mouse) (UniProt Q61559)
[3] = biological target: mouse FcγRI (mouse) (UniProt P26151)
[4] = biological target: mouse FcRn (mouse) (UniProt Q61559); experiment: pH 5.6

Sequence of mouse FcγRI (mouse) (P26151 25-297 limits assumed): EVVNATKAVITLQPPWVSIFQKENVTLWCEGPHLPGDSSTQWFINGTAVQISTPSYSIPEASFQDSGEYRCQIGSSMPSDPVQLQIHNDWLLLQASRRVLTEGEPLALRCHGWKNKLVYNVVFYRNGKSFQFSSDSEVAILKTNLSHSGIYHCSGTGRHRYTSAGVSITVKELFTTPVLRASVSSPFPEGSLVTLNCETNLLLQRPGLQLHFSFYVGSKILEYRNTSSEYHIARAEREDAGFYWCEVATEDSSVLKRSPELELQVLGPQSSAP

| kon [2] [M⁻¹ s⁻¹] | Kd [3] [pM] | koff [3] [s⁻¹] | kon [3] [M⁻¹ s⁻¹] | Kd [4] [pM] | koff [4] [s⁻¹] | Substance | IC50 (PsV neutralization) [1] [mg/L] |
| --- | --- | --- | --- | --- | --- | --- | --- |
|  |  |  |  |  |  | REGN10933 (recombinant mAb, reference IgG) (antibody) | 0.0044 |
|  |  |  |  |  |  | REGN10987 (recombinant mAb, reference IgG) (antibody) | 0.03 |
| 682000 | < 1 | < 1e-07 | 939000 | < 1 | < 1e-07 | mouse surrogate Multabody (HD37, mouse IgG2a Fc, mouse apoferritin), WT Fc |  |
| 2.4e+06 |  |  |  | < 1 | < 1e-07 | mouse surrogate Multabody with LALAP Fc |  |
